{"source": "patent US20140341843A1", "about": "(ELEVEN BIOTHERAPEUTICS, published 2014)", "binders": {"B1": {"name": "P02 (designed binder)", "chain": "APVRSLAFRIWDVNQKTFYLRNNQLVAGYLQGPNVNLEEKIDVSFVQGEESNDKIPVALGIHGGKMCLSCVKSGDETRLQLEAVDPKNYPKKKMEKRFVFNKIEINNKLSFESAACPGWFLCTAMEADQPVSLTNMPDEGVMVTKFYMQFVSS", "notes": "IL-1β/IL-1Ra chimera expressed in E. coli; also called P02 domain; chimeric cytokine domain P02"}}, "molecular_target": "T1, soluble recombinant human IL-1RI (corresponding to the extracellular domain of IL-1RI) (human, UniProt P14778 18-336)", "T1 construct": "extracellular domain; also called interleukin-1 receptor I; IL-1R1 receptor", "T1 sequence (looked up)": "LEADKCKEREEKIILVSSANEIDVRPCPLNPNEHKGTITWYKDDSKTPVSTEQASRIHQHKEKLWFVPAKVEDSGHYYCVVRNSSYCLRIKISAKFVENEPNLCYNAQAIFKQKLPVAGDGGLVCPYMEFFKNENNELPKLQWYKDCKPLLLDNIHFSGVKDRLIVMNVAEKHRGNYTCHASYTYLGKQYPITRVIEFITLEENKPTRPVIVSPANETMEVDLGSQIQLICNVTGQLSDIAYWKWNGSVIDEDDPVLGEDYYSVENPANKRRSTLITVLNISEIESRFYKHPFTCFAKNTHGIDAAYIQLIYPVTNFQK", "experiment": "Kd to the IL-1R1 receptor as listed in Table 15; method not restated, values are the SPR values of Table 7 rounded", "data": [{"binder": "B1", "values": [{"measurement": "Kd", "value": 0.64, "unit": "nM"}]}]}
